Measurements taken from the DeepSol protein solubility set.

Test: soluble on expression in E. coli; label from the status in PepcDB or PDB records

| Sequence | soluble on expression in E. coli |
| --- | --- |
| MSHPSHVRALCASLCLGAGLPVHAGHVHAGQGFLEDAKASLTARNFHLHRNFVGDASQGKAEEWTQSFILDARSGFTQGSVGFGLDVLGLYSLKLDGGKGTAGTQLLPIHDDGRPADDFGRLAVAGKLRVSNSELKIGEWMPVLPILRSDDGRSLPQTFRGGQLSANEIAGLTLYAGQFRGNSPRNDASMQDMSLFGRPAATSDRFDFAGGEYRFNGERSLLGLWNAELKDIYRQQYLQLQHSQPLGDWLLGANLGGFRGRDAGSARAGKLDNRTVSALFSARYGLHTLYLGLQKVSGDDGWMRVNGTSGGTLANDSYNASYDNPGERSWQLRYDFDFVGLGLPGLTFMTRYLHGDHVRLAGVTDDGSEWGRESELGYTLQSGAFKRLNVRWRNSSQRRDWGSNTRFDENRLIVSYPLSLL | not soluble |
| SLVPRVMSTQHPDNARIPFFAASEVLNGEDEVREAYYVFSHFKCDEQMWDFEGKEADAHIVRKLLSSYYDFFSSRPLGKDFRLTMRVPNPEIEKGEAKLLAETLEMIPRSYDYVRSLGIEHPPIFEVILPMTRSAEEVMKVHAFYRDFVAGKGRFELLGEKVSDWLGDFLPEEIKVIPLFEDRDSLMRAAEISERYAEWAELDELRVFLARSDPAMNYGFVAATIYVKKALYDLSQLGISTYPILGVGSCPFRGGFSPKNLSVLDEFPSVYTFTVQSAFKYDYEFGDVRRAIKRAKEAARRKSDYVDEEHLQVAEKLKDGYRRRIAKIAEIVNRISSRIPRRRMRKLHVGLFGYSRGEEIKLPRAITFCASLYSIGLPSEIIGIAEMSDKDYEAVCEVFKNFDGMMESAMSLFNPESLKIVDLSMDFERAKELFGYEPDERHLEKTNEIIKQIDGDIKNLVVEAGILRGFLG | soluble |
| MMQFEVKDLINKIKKDGLEEAERASNDIILKAKREAEEIVARAEEAARVLKAKSEKEANDYKCHALEASRQAIRDLIIGVEKNLKSLFENALKDNVTEVLSDNNFLAELIIKITDSWAKGEKLVIQLNESDFSSLEQILRLKLGNKLKEGMELRPFRGISKGFKIQKKNIGLHYDFSAETIADILFDYLNPRFKEVIKVV | not soluble |
| MTVEEYQQTVAQWLEVAKDPHFNKAYTELTYKPMREMVTYLQDHDFKVYIVSGGGVDFMRTWAPEVYGIPEEQIIGSALKYKYDYNNSNPTVTKLGEILTIDDKAGKVENIQHIIGKKPVLAIGNSDGDHAMMQWATSQPNSMAMIVHHTDEAREWKYDR | not soluble |
| MTTIGTRKRVAVVTGASSGIGEATARTLAAQGFHVVAVARRADRITALANQIGGTAIVADVTDDAAVEALARALSRVDVLVNNAGGAKGLQFVADADLEHWRWMWDTNVLGTLRVTRALLPKLIDSGDGLIVTVTSIAAIEVYDGGAGYTAAKHAQGALHRTLRGELLGKPVRLTEIAPGAVETEFSLVRFDGDQQRADAVYAGMTPLVAADVAEVIGFVATRPSHVNLDQIVIRPRDQASASRRATHPVR | not soluble |
| HSDPARRGQLSVCDSISEWVTAADKKTAVDMSGGTVTVLEKVPVSKGQLKQYFYETKCNPMGYTKEGCRGIDKRHWNSQCRTTQSYVRALTMDSKKRIGWRFIRIDTSCVCTLTIKRGR | soluble |
| MSTSEMLELNRTIDRLRRAVGSLRSMYGDAASVRRLSNDLERLEIDARELDSSPPNVVHREPVERIKVSDTPYDASMWLGIDDEGLGGLHYERG | not soluble |
| MASATLPRFDLMGWDKKDIADPYPVYRRYREAAPVHRTASGPGKPDTYYVFTYDDVVRVLSNRRLGRNARVASGDTDTAPVPIPTEHRALRTVVENWLVFLDPPHHTELRSLLTTEFSPSIVTGLRPRIAELASALLDRLRAQRRPDLVEGFAAPLPILVISALLGIPEEDHTWLRANAVALQEASTTRARDGRGYARAEAASQEFTRYFRREVDRRGGDDRDDLLTLLVRARDTGSPLSVDGIVGTCVHLLTAGHETTTNFLAKAVLTLRAHRDVLDELRTTPESTPAAVEELMRYDPPVQAVTRWAYEDIRLGDHDIPRGSRVVALLGSANRDPARFPDPDVLDVHRAAERQVGFGLGIHYCLGATLARAEAEIGLRALLDGIPALGRGAHEVEYADDMVFHGPTRLLLDLPDAALEHHHHHH | soluble |
| MSKRRVVVTGMGMLSPVGNTVESSWKALLAGQSGIVNIEHFDTTNFSTRFAGLVKGFDCEQYMSKKDARKMDLFIQYGIAAGIQALEDSGLEVNEENAARIGVAIGSGIGGLELIETGHQALIEKGPRKVSPFFVPSTIVNMIAGNLSIMRGLRGPNIAISTACTTGLHNIGHAARMIAYGDADAMVAGGAEKASTPLGMAGFGAAKALSTRNDEPQKASRPWDKDRDGFVLGDGAGIMVLEEYEHAKARGAKIYAEVVGFGMSGDAYHMTSPSEDGSGGALAMEAAMRDAGVTGEQIGYVNAHGTSTPAGDVAEVKGIKRALGEAGTKQVLVSSTKSMTGHLLGAAGSVEAIITVMSLVDQMVPPTINLDNPEEGLGVDLVPHVARKVESMEYAMCNSFGFGGTNGSLIFKRM | not soluble |
| MAHHHHHHMQQQPRPVVAQYAYIELLPLRYTGPAPPPAPACMDPTPDEQYRRGVAEKRAALKQKEARRQMSSSGSGMLASLKSAVSQAVMTMEKGAADVSTRTESQVRQLEYQYDCDRFNLHFHELAENGEVLLADYRCSAMHSGLRVNGHVQITPHYLCFLAETTSSIAKTTDAVMGVFVAARHPTSANDEPRNRPVGIKQVIALADIVSIQPSVVLESI | soluble |
| MIKHLVAPLVFTSLILTGCQSPQGKFTPEQVAAMQSYGFTESAGDWSLGLSDAILFAKNDYKLLPESQQQIQTMAAKLASTGLTHARMDGHTDNYGEDSYNEGLSLKRANVVADAWAMGGQIPRSNLTTQGLGKKYPIASNKTAQGRAENRRVAVVITTP | not soluble |
| MSLKPESPNQDDFIIITMENLALYAIFDGHGPYGHDVSNYVQKELPYMIIKNENFLKNPKEVFTKAFLNIHENIERTTNAYLDSFTNKNSDSTMSGTTATIIVHLFKEKKLYVAYVGDSRAVLGKRKNGSKQLSAVELTKDHKPNCAAEKKRILSSGGQVMKLEGDIPYRVFIKNKFYPGLAMSRAIGDTIGHQIGIIAEPDFIEVNINEDEDILVLICSDGVWEFISSEEAVNLIYEFGYNNVQDAVENLARESWDRWLNEEENIVDDITIQAIYLSEKSKYLKEGHHHHHH | not soluble |
| MKKLKMKKLISLLLTLTMILALTACGAKETGKSQDESDLNYVKSKGKLIIGYTNYAPMNYTDENGVFTGFDTELAILTCEKLGVEPEFVEINWDTKEVELNAKSIDCIWNGLTIDDDRKAKMEITQPYVKNAQVVLVKEGTEYNGTESLIGKTVVAEQSSAGEKTIMADENLKKANYVPKTLQTDCLMELKSGTADAAVLDLTLAKTMTGEGTSYEDIVIVDYLAEENYGVAFRKGSDICAEVNKIFDDFLADGTMAALAEKYGLELAE | not soluble |
| RYHEFLGHFMNQFTSFGVAGAHGKTSTTGLLSHSMKNITDTSYLIGDGTGRGSANAQYFVFEADEYERHFMPYHPAYSIITNIDFDHPDYFTSIDDVFSAFDDYAKQVQKGLFVYGEDSNLRKITSNAPIYYYGFEENDDFMATDIIRTTTGSNFKVKHDGQIIGEFHVPAYGRHNILNATAVIANLYVAGFDMALVAEHLKTFSGV | not soluble |
| MGSDKIHHHHHHMKKTYVLDTNVLLHDPMALFRFEDNDLVIPITVIEEIDRFKKDLNERGRNARQISRLLDGFRSKGHLIEGITLDHGGKLRVVMLEKTFLEQLPSGLIANANDNAILAVALALQQQNGQPTILVTKDTNLRIKADATGLCAEDYESDKIDFSELYSGTAEVYLAPDQLQVFRREGGLDLSGEFFPNQALTLVDETNLSHTLLGRYRASDRRVVPLIQPPKMGISRIHARNREQQFALDLLLDDNIQLVTLVGKAGTGKTLLAVAAGLHKVADERHFSRLLVSRPIFPMGRDLGFLPGDLQEKLAPWMQPIIDNLDFILGGANNNGDRPSNKQQNYQDLMGMNLLQIEPLTYIRGRSIPRQFMIVDEAQNLTPHEIKTILTRAGEGTKIVLTGDAYQIDNPYVDASSNGLTYVVEKFKNEAIAGHITLERGERSPLAELSANLL | not soluble |
| MSLIEKLEEIFKKGSVTYYNSSYFFPKKIREDVTKLYAFVRVFDDLVDSVPQKIEEYYNLRKLYQLEKSGYNTGNIVLQNFVELARRKGFEDSWIDAFLDAMESDIYKKVYYSIEELLKYMYGSAEVVGLFMMKILDLHNDSMYYARMLGRAMQFLNFIRDVQEDLYLGRQYLPVEDMEKFGIDKMECNEGFIEFIRYEISRYFEFEREAEKGFKFIPARYLVPIKTASEMYKWSALRIKKSPCIVLSKKVKPRRTKIVITVIKNFAGVYLWRSLNPIEGHHHHHH | soluble |
